Data: patent publication US20150376265A1 (Genentech, published 2015)
Positions count from the first letter of the chain named. Numbers in names are those of the source. Where “and” joins values, the source holds several entries; their conditions need not be identical. Equal values may be shown once. Read-outs that look alike come from different tables or passages of the source.

Key:
[1] = target: T1, HCMV gH on virions of strain VR1814 (HCMV, UniProt P12824 24-743); test: cell-based or functional assay
T1 sequence: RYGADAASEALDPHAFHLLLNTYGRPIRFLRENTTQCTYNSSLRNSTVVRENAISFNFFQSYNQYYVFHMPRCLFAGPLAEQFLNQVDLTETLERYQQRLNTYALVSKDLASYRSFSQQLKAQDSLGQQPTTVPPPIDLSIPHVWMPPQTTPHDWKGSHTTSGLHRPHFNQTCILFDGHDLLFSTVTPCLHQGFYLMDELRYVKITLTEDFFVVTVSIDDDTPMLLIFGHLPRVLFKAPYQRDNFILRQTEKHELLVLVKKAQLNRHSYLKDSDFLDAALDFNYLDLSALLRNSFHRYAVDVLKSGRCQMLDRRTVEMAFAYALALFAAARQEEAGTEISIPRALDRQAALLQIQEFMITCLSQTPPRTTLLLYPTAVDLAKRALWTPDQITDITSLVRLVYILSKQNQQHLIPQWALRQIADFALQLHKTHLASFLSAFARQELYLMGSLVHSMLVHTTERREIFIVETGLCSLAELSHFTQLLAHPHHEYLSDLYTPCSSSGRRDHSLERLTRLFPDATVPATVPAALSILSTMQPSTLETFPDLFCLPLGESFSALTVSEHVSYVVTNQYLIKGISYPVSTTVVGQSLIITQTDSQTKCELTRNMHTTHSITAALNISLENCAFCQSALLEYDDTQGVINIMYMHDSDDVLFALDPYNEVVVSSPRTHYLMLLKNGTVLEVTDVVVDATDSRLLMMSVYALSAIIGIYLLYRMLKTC

[2] = target: T1, HCMV gH on virions of strain VR1814; test: cell-based or functional assay; remark: listed apart in the source
[3] = target: T1, HCMV gH on virions of strain VR1814; test: cell-based or functional assay; remark: listed apart in the source
[4] = target: T1, HCMV gH on virions of strain VR1814; test: cell-based or functional assay; remark: listed apart in the source
[5] = target: T1, HCMV gH on virions of strain VR1814; test: cell-based or functional assay; remark: listed apart in the source
[6] = target: T1, HCMV gH on virions of strain VR1814; test: cell-based or functional assay; remark: listed apart in the source
[7] = target: T1, HCMV gH on virions of strain VR1814; test: cell-based or functional assay; remark: listed apart in the source
[8] = target: T2, soluble baculovirus-expressed gH/gL (HCMV, UniProt P12824 24-720; P16832 31-278); test: competition phage ELISA: phage-displayed Fab with serially diluted soluble gH/gL, free phage caught on coated gH/gL
T2 construct: also called gH/gL dimer produced in baculovirus; baculovirus expressed, secreted gH/gL
T2 sequence 1: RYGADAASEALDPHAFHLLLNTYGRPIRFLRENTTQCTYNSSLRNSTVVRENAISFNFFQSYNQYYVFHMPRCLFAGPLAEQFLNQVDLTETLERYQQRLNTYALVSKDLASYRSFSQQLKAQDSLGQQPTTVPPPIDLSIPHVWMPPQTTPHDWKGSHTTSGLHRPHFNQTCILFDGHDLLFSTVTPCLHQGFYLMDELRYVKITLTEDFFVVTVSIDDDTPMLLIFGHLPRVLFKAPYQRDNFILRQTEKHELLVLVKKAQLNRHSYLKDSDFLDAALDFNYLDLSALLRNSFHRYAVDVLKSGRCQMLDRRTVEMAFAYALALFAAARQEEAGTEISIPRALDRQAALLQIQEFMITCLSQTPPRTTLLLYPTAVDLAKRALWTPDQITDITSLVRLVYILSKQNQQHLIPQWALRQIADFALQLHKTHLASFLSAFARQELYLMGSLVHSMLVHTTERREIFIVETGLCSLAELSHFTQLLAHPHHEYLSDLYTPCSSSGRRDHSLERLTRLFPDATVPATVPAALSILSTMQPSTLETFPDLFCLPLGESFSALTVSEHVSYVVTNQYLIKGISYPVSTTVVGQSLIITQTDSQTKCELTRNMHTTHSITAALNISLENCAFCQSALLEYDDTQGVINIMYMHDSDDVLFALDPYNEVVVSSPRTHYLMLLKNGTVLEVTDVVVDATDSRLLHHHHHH
T2 sequence 2: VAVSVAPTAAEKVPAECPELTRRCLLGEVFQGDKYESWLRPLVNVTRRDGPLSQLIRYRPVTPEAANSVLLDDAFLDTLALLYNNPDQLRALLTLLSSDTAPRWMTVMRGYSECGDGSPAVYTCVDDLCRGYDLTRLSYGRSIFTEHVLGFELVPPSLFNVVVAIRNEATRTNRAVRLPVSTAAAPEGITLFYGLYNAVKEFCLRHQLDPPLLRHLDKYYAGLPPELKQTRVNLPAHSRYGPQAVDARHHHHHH

B1: MSL-109 (antibody, V domains shown)
VH: EEQVLESGGGLVKPGGSLRLSCAASGFTFSPYSVFWVRQAPGKGLEWVSSINSDSTYKYYADSVKGRFTISRDNAENSIFLQMNSLRAEDTAVYYCARDRSYYAFSSGSLSDYYYGLDVWGQGTLVTVSS
VL: DIVMTQSPLSLSVTPGEPASISCRSSQSLLHTNGYNYLDWYVQKPGQSPQLLIYLASNRASGVPDRFSGSGSGTDFTLKISRVETEDVGVYYCMQALQIPRTFGQGTKVEIK
- EC50, neutralisation of HCMV strain VR1814 on endothelial cells [1]: 0.0764 µg/mL
- EC50, neutralisation of HCMV strain VR1814 on epithelial cells [1]: 0.164 µg/mL
- EC50, neutralisation of HCMV strain VR1814 on fibroblasts [1]: 0.389 µg/mL
- Epithelial EC50 (first pair of columns), neutralisation [2]: 0.3 µg/mL
- Epithelial EC50 (second pair of columns), neutralisation [2]: 0.48 µg/mL
- Fibroblast EC50, neutralisation [2]: 0.73 µg/mL
- MDM EC50, neutralisation [2]: 0.04 µg/mL

B2: MSL-109 Fab fragment (WT) (Fab, V domains shown)
VH: B1 VH
VL: B1 VL
- EC50, inhibition of HCMV entry into ARPE-19 cells, Fab fragments from E. coli [3]: 6.2 nM

B3: HB1 (D53N/T55R) (antibody, V domains shown)
VH: B1 VH with D54N, T56R
VL: B1 VL
- EC50 of HB1 in the presence of hu8G8 at .000128 µg/ml [4]: 0.041 µg/mL
- EC50 of HB1 in the presence of hu8G8 at .00064 µg/ml [4]: 0.043 µg/mL
- EC50 of HB1 in the presence of hu8G8 at .0032 µg/ml [4]: 0.035 µg/mL
- EC50 of HB1 with hu8G8 at 0 µg/ml [4]: 0.03 µg/mL
- EC50, block of viral entry into fibroblasts [3]: 0.11 µg/ml and 0.7 nM
- EC50 on epithelial cells, HB1 alone [5]: 0.063 µl/ml
- HB1 EC50, neutralisation of hu8G8 - mutant virus 1 (UL131 Q47K, gH unchanged) [6]: 0.18 µg/mL
- HB1 EC50, neutralisation of hu8G8 - mutant virus 2 (UL131 K51E, gH unchanged) [6]: 0.07 µg/mL
- HB1 EC50, neutralisation of hu8G8 - mutant virus 3 (UL131 D46N, gH unchanged) [6]: 0.06 µg/mL
- HB1 EC50, neutralisation of the No Ab control virus [6]: 0.22 µg/mL
- Epithelial EC50 (first pair of columns), neutralisation [2]: 0.05 µg/mL
- Epithelial EC50 (second pair of columns), neutralisation [2]: 0.03 µg/mL
- Fibroblast EC50, neutralisation [2]: 0.11 µg/mL
- MDM EC50, neutralisation [2]: 0.03 µg/mL
- HB1 EC50, neutralisation of the No Ab control virus [7]: 0.04 µg/mL

B4: MSL-109 Fab variant H2-D53S/T55R (Fab, name in Kabat numbering, V domains shown)
VH: B1 VH with D54S, T56R
VL: B1 VL
- IC50 [8]: 0.03 nM

B5: HB2 Fab fragment, H2-D53Q/T55R (HB2) (Fab, name in Kabat numbering, V domains shown)
VH: B1 VH with D54Q, T56R
VL: B1 VL
- IC50 [8]: 0.01 nM

B6: MSL-109 Fab variant H2-D53L/T55R (Fab, name in Kabat numbering, V domains shown)
VH: B1 VH with D54L, T56R
VL: B1 VL
- IC50 [8]: 0.02 nM

B7: MSL-109 Fab variant H2-D53T (Fab, name in Kabat numbering, V domains shown)
VH: B1 VH with D54T
VL: B1 VL
- IC50 [8]: 0.06 nM

B8: MSL-109 Fab variant H2-T55R (Fab, name in Kabat numbering, V domains shown)
VH: B1 VH with T56R
VL: B1 VL
- IC50 [8]: 0.17 nM

B9: MSL-109 Fab variant H2-D53N (Fab, name in Kabat numbering, V domains shown)
VH: B1 VH with D54N
VL: B1 VL
- IC50 [8]: 0.06 nM

B10: MSL-109 Fab variant H2-D53F/T55R (Fab, name in Kabat numbering, V domains shown)
VH: B1 VH with D54F, T56R
VL: B1 VL
- IC50 [8]: 0.01 nM

B11: MSL-109 Fab variant H2-D53T/T55R (Fab, name in Kabat numbering, V domains shown)
VH: B1 VH with D54T, T56R
VL: B1 VL
- IC50 [8]: 0.03 nM

B12: MSL-109 Fab variant H2-D53S (Fab, name in Kabat numbering, V domains shown)
VH: B1 VH with D54S
VL: B1 VL
- IC50 [8]: 0.1 nM

B13: HB1 Fab fragment, H2-D53N/T55R (HB1) (Fab, V domains shown)
VH: B1 VH with D54N, T56R
VL: B1 VL
- EC50, inhibition of HCMV entry into ARPE-19 cells, Fab fragments from E. coli [3]: 0.15 nM

B14: MSL-109 Fab variant H2-D53M (Fab, name in Kabat numbering, V domains shown)
VH: B1 VH with D54M
VL: B1 VL
- IC50 [8]: 0.05 nM

B15: MSL-109 Fab variant H2-D53L (Fab, name in Kabat numbering, V domains shown)
VH: B1 VH with D54L
VL: B1 VL
- IC50 [8]: 0.02 nM

B16: MSL-109 Fab variant H2-D53M/T55R (Fab, name in Kabat numbering, V domains shown)
VH: B1 VH with D54M, T56R
VL: B1 VL
- IC50 [8]: 0.07 nM
